Results published in the nanobody polyreactivity screen of Harvey et al. (2022).

Test: yeast display, Sf9 membrane polyspecificity reagent, FACS + sequencing; frameworks hold sequencing errors
Outline: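 Nanobodies from a synthetic yeast display library (Saccharomyces cerevisiae BJ5465), induced 36–48 hours with galactose, were stained 1 hour at 4 °C with 10% biotinylated, detergent-solubilized Sf9 membrane reagent, enriched on streptavidin microbeads, then FACS-sorted. Anti-HA (expression) and streptavidin (reagent binding) fluorescence set low and high (top ~1%) gates. Polyreactivity labels come from the gate of origin. Genes were colony-PCR amplified, MiSeq 2 × 250 sequenced and filtered by CDR length.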

Sequence | polyreactivity (PSR sort gate)
QVQLVESGGGLVQAGGSLRLSCAASGIIFRNNAMGWYRQAPGKERELVAAISRRGGSTSYADSVKGRFTISRDNAKNTVYLQMNSLKPEDTAVYYCNKAGPYYGYPHYLFYYWGQGTQVTVSS | high polyreactivity
QVQLVESGGGLVQAGGSLRLSCAASGIIFRRNAMGWYRQAPGKERELVAAIRWSGGSTYYADSVKGRFTISRDNAKNTVYLQMNSLKPEDTAVYYCAARYYRPRYEMDYWGQGTQVTVSS | low polyreactivity
QVQLVESGGGLVQAGGSLRLSCAASGIIFRRYAMGWYRQAPGKERELVAAISSSGGNTYYADSVKGRFTISRDNAKNTVYLQMYSLKPEDTAVYYCAARSQIYYRYRSYGYWGQGTQVTVSS | high polyreactivity
QVQLVESGGGLVQAGGSLRLSCAASGIIFRRYAMGWYRQAPGKERELVATITWSGGSTYYADSVKGRFTISRDNAKNTVYLQMNSLKPEDTAVYYCAKRGSRLYRLDYWGQGTQVTVSS | high polyreactivity
QVQLVESGGGLVQAGGSLRLSCAASGIIFRTYAMGCYRQAPVKERELVAAITGSGGITYYADSVKGRFTISRDNAKNTVYLQMNSLKPEDTAVYYCAARGTRDGVQRYGYWGQGSQVTVSS | high polyreactivity
QVQLVESGGGLVQAGGSLRLSCAASGIIFRTYDMGWYRQAPGKERELVANISWSAGSTYYADSVKGRFTISRDNAKNTVYLQMNSLKPEDTAVYFCNAVRLYPSSYDYWGQGTQVTVSS | low polyreactivity
QVQLVESGGGLVQAGGSLRLSCAASGIIFRVNAMGWYRQAPGKERELVAAISSGGRTYYADSVKGRFTISRDNAKNTVYLQMNSLKPEDTAVYYCAAKPPSTYDYWGQGTQVTVSS | high polyreactivity
QVQLVESGGGLVQAGGSLRLSCAASGIIFRVYTMGWYRQAPGKERELVAGISSGDSTSYADSVKGRFTISRDNAKNTVYLQMNSLKPEDTAVYYCNAVAYYSYSANFRNAYDYWGQGTQVTVSS | low polyreactivity
QVQLVESGGGLVQAGGSLRLSCAASGIIFRWYVMGWYRQAPGKERELVAAISYRRGSTNYADSVKGRFTISRDNAKNTVYLQMNSLKPEDTAVYYCNRVPYPGSRRKYDYWGQGTQVTVSS | high polyreactivity
QVQLVESGGGLVQAGGSLRLSCAASGIIFRYNAMGWYRQAPGKERELVAVINWRSGGTYYADSVKGRFTISRDNAKNTVYLQMNSLKPDDTADYYCADRVGSWTQSFGYDYWGQGTQVTVSS | high polyreactivity
QVQLVESGGGLVQAGGSLRLSCAASGIIFRYNTMGWYRQAPGKERELVAAISGGGRTYYADSVKGRFTISRDNAKNTVYLQMNSLKPEDTAVYYCAARYRTSGLDNYWGQGTQVTVSS | high polyreactivity
QVQLVESGGGLVQAGGSLRLSCAASGIIFRYYAMGWYRQAPGKERELVAAISSSGVSTYYADSVKGRFTISRDNAKNTVYLQMNSLKPEDTAVYYCNAVIWVRQYFSRSSSNYWGQGTQVTVSS | high polyreactivity
QVQLVESGGGLVQAGGSLRLSCAASGIIFRYYAMGWYRQAPGKERELVAAITSRGGSTYYADSVKGRFTISRDNAKNTVYLQMNSLKPEDTAVYYCATAYYYFSTSRADGEYWGQGTQVTVSS | high polyreactivity
QVQLVESGGGLVQAGGSLRLSCAASGIIFRYYAMGWYRQAPGKERELVAAITWSGGTYYADSVKGRFTISRDNAKKTVYLQMNSLKPEETAVYYCAAVYYGYRDRTDYGYWGQGTQVTVSS | high polyreactivity
QVQLVESGGGLVQAGGSLRLSCAASGIIFRYYAMGWYRQAPGKERELVARITSRGGTYYADSVKGRFTISRDNAKNTVYLQMNSLKPEDTAVYDCAASYLLTHGYAYNYWGQGTQVTVSS | high polyreactivity
QVQLVESGGGLVQAGGSLRLSCAASGIIFRYYAMGWYRQAPGKERELVAVITRSGGSTYADSVKGRFTISRDNAKNTVYLQMNSLKPEDTAVYYCAAQWYLGYATRWRGGYWGQGTQVTVSS | high polyreactivity
QVQLVESGGGLVQAGGSLRLSCAASGIIFSDYAMGWYRQAPGKERELVAAISRNGGSTYYADSVKGRFTISRDNAKNTVYLHMTSLKPEDTAVYYCAATRRYRYNWGQGTQVSVSS | high polyreactivity
QVQLVESGGGLVQAGGSLRLSCAASGIIFSDYGMGWDRQAPGKERELVAAINSGGRTYSADSVKGRFTISRDNAKNTVYLQMNSLKPEDTAVYYCAADTQGSRYDYWGQGTQVTVSS | high polyreactivity
QVQLVESGGGLVQAGGSLRLSCAASGIIFSFYAMGWYRQAPGKERELVADITLSGGRTYYADSVKGRFTISRDNAKNTVYLQMNSLKPEDTAVYYCNDETYERGDYWGQGTKVTVSS | high polyreactivity
QVQLVESGGGLVQAGGSLRLSCAASGIIFSFYTMGWYRQAPGKERELGAAITWSGGSTYYADSVKGRFTISRDNAKNTVYLQMNSLKPEDTAVYYCARSQAVYDGWFAKFGYWGQGTQVTVSS | low polyreactivity
QVQLVESGGGLVQAGGSLRLSCAASGIIFSGYVMGWYGQAPGKERELVAAISRSGGRTFYADSVKGRFTISRDNAMNTVYLQMNSLKPEDTAVYYCAKVPSYVRGHGYQYDHWGQGTQVTVSS | high polyreactivity
QVQLVESGGGLVQAGGSLRLSCAASGIIFSIYAMGWYRQAPGKERELVAAISGRGGRTYYADSVKGRFTISRDNAKNTVYLQMNSLKPVDTAVYYCIAEYLDLYDYWGQGTQVTVSS | low polyreactivity

Sequence | polyreactivity (PSR sort gate)
QVQLVESGGGLVQAGGSLRLSCAASGIIFSPYAMGWYRQAPGKERELVAAISYSGGSTYYADSVKGRFTITRDNAKNTVYLQMNSLKPEDTAVYYCAVVYSYYLAVLGYWDYDYWGQGTQVTVSS | low polyreactivity
QVQLVESGGGLVQAGGSLRLSCAASGIIFSPYAMGWYRQAPGKERELVAAISYSGGSTYYADSVKGRYTISRDNAKNSVYLQMNSLKPEETAVYYCAVFYSYYLAFMGYWDYDYWGQGTQVTVSS | low polyreactivity
QVQLVESGGGLVQAGGSLRLSCAASGIIFSSYAMGWYRQAPGKERELVAAITRGGSTNYADSVKGRFTISRDNAKNTVYLQMNSLKPEDTAVYYCNALWRAYRNYHYIVKNDYWGEGTQVTVSS | high polyreactivity
QVQLVESGGGLVQAGGSLRLSCAASGIIFSSYAMGWYRQAPGKERELVAAITSGGSTNYADSVKGRFTISRDNAKNTVYLQMNSLKPEDTAVYYCATVHAKPYYYWGQGTQVTVSS | low polyreactivity
QVQLVESGGGLVQAGGSLRLSCAASGIIFSVNAMGWYRQAPGKERELVAAISGSGGRTYYADSVKGRFTISRDNAKNTVYLQMNSLKPEDTAVYYCAARRTGKSYYGSRSGFDYWGQGTQVTVSS | high polyreactivity
QVQLVESGGGLVQAGGSLRLSCAASGIIFSVYAMGWYRQAPGKERELVAAISWSGTSTYYADSVKGRFTISRDNAKNTVYLQMNSLKPEDTAVYYCNAKRYRYFGNEYWGQGTQVTVSS | high polyreactivity
QVQLVESGGGLVQAGGSLRLSCAASGIIFSWYAMGWYRQAPGKERELVASITASGGSTYYADSVKGRFTISRDNAKNTVYLQMNSLKPEDTAVYYCAVRYGHRSFASVYVEYEYWGQGTQVTVSS | low polyreactivity
QVQLVESGGGLVQAGGSLRLSCAASGIIFSYNVMGWSREARGKEREFVAAISRSVGSTYYADSVKGRFTISRDNAKNTVYLPMNSLKPEDTAVYYCNARGKRRGKIPYSSYASSYDSWGQGTQVTVSS | high polyreactivity
QVQLVESGGGLVQAGGSLRLSCAASGIIFSYYDMGRYRQAPGKERELVATITGNGGSTYYADSVKGRFTISRDNAKNTVYLQMNSLKPEDTAVYYCAAQTTVYIYDYWGQGTQVTVSS | low polyreactivity
QVQLVESGGGLVQAGGSLRLSCAASGIIFSYYTMGWYRQEPGKEREVVAAISARGGRTYYADSVKGRFTISRDNAKNTVYLQMNSLKPEDTAVYYCAASWSTEYYWGQGTQVTVSS | high polyreactivity
QVQLVESGGGLVQAGGSLRLSCAASGIIFTDNAMGWYRQAPGKERELVATISWSTDNTYYADSVKGRFTISRDNAKNTVYLQMNSLKPEDTAVYYCAAEEYYAYWYQYDYWGQATQVTVSS | low polyreactivity
QVQLVESGGGLVQAGGSLRLSCAASGIIFTDYAMGWYRQAPGIERELVAAISGSGGSTYYADSVKGRFTISRDNAKNTVYLQMNSLKPEDTAVYYCAAATHIFLQVYYAYGYWGQGTQVTVSS | high polyreactivity
QVQLVESGGGLVQAGGSLRLSCAASGIIFTFYAMGWYRQAPGKERELVAAISYSSGSTYADSVKGRFTISRDNAKNTVYLQMNSLKPDDTAVYYCAVDLFPGHSYTYDYWGQGTQVTVSS | low polyreactivity
QVQLVESGGGLVQAGGSLRLSCAASGIIFTGNAMGWYIQAPGKERELVAAITSGDTTNYADSVKGRFTISRDNAKNTVYLQMNSLKPEDTAVYYCAKELQVRQAGDYWGQGTQVTVSS | low polyreactivity
QVQLVESGGGLVQAGGSLRLSCAASGIIFTGNAMGWYRQAPGKERELVAAITSGDTTNYADSVKGRFTISRDNAKNTVYLQMNSLKPEDTAVYFCAIELQVRQAGDYWGQGTQVTVSS | low polyreactivity
QVQLVESGGGLVQAGGSLRLSCAASGIIFTQYAMGLYRQAPGKERELVAAISGSGGRTYYADSVKGRFTISRDIAKNTVYLQMNSLKPEDTAVYYCAARYARYGNDYWGQGTQVTVSS | high polyreactivity
QVQLVESGGGLVQAGGSLRLSCAASGIIFTRNAMGWYRPAPGKERELVAASSRSGGSTYYADSVKGRFTISRDNAKNTVYLQMNSLKPEDTAVYDGAAAWSEYPYDYWGQGTQVTVSS | low polyreactivity
QVQLVESGGGLVQAGGSLRLSCAASGIIFTRYAMGWYRQAPGKERELVAAITRNGVSTYYADSVKGRFTISRDNAKNSVYLQMNSLKPEDTAVYYCNTYVLRRYAYGYWGQGTQVTVSS | high polyreactivity
QVQLVESGGGLVQAGGSLRLSCAASGIIFTRYVMGWYRQAPGKERELVATIRIGGSTTYADSVKGRFTISRDNAKNTVYLQMNSLKPEDTAVYYCAADTWYITTYGGAGSYAYGFYYWGQGTQVTVSS | low polyreactivity
QVQLVESGGGLVQAGGSLRLSCAASGIIFTSNTMGWYRPAPGKEREFVASINWNGSSTYADSVKGRFTISRDNAKNTVYLQMYSLKPDDTAVYYCNADSNRNSVQFSLYDYWGQGTQVTVSS | low polyreactivity
QVQLVESGGGLVQAGGSLRLSCAASGIIFTSYAMGWYRQAPGKERELVAVITGTGGITYYADSVKGRFTISRDNAKNTVYLQMNSLKPEDTAVYYCAAELELREYDYWGQGTQVTVSS | high polyreactivity
